The domain aggregation screens of Martell et al. (2025)

assay: soluble fraction after stress (log2 fold change); higher = more stays soluble; pooled small domains, quantitative proteomics; details: stress: 50 degC
Method in brief: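 Custom libraries of small protein domains were pooled and measured in a high-throughput format, with quantitative proteomics as the read-out. Each library was stressed at 50°C. The value is the log2 fold change in the amount of each protein that stays soluble after stress, used as a measure of aggregation propensity; higher values mean more of the protein stays soluble.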

Row | Sequence | soluble fraction (log2)
1 | HMVDLANIDPIASSIKLNGAEADASFNTLEDRRVSVSGSFEENKNYTMEYTFKDYAGGSVTGTLDFKTLA | 0.137
2 | HMISDISEIEAIIVEVLKVFPNQLQEYLDGKEKILSFFVGQVMQRTKGRANPSLVNEILKEKIKN | 0.0377
3 | HMLPNIKSEMEILGDNAKARLEAAELWSKKYLSNEAYDTMSKLATTADGVKAIEEIMNITKS | -0.0779
4 | HMFDFGNHLRMLREKHGISQEELGRRVGRAGSVISNYENNIKIPTLDVLTTMARIYDVSLDYLVG | -1.36
5 | HMAVPLVRGTVTSSVGTVLLLSVGERDFFLSEGEEKDGVLLQSLSEKSAVVVVSGRAYTLSL | -0.408
6 | HMKTYSEAQLKIALESLIENGKKQGYLTFQEINEILPDGIINTQDLKVIISILKETGIVVAKEKPEINIDV | 0.0784
7 | HMSSDLESVIGTHSQEANFALRSWGWIQPDETWKNLRPDQVSQILERANEFMAKAIESFANAQSE | -0.14
8 | HMFWEGYLAARREQFLKDQQVLLGNEFRSNPDFWLEVASKEWAVVEERLSTGADVSEEVQETMGLDF | -2.16
9 | HMRTIPDALIGRPYESVETAIVLEGLQAKRTEVFHPTIRPGTVIRLEPTSGSELLRDGVVEIFVSQGPETT | -0.159
10 | HMTGMEASLSKLLQGEQFADLRKALIDKGIRKLEAFKRLNLWVFMNRNRLYSIGQRQTVYSTLQRALASE | 0.0329
11 | HMAGEDPANLELMRLMDEEYMEHPTKGVLGMVDFLRALGILTGPKRVRRLLRKMGIMAIYPK | -0.0379
12 | HMETLGADLRALRKSRGLTLLDMAESLGRSVGWLSQVERDLSDPSISDLREIAELLGVPISMLFRH | -2.86
13 | HMQQLIEFSVTKGHPWINKKIMDLNLPENQLILTIQREGHVVSAEGKTIILENDRITISTDDR | -0.0156
14 | HMDNPYEVFIPNSYIGQRLDQTLASLFPQFSRSRLQNWLASGNLLVNGKIVKPKTKILGGEQINILDPYN | -0.339
15 | HMSMEIQEIIRQLREKNDWSQEDMAERVGLSKNGYAKIERGETNLNLERLEQIANLFDLSVIDLIEMS | -0.796
16 | HMVARPVLQIGSTGADVTAIQARLGVSQTGYFGVLTAAAVTNFQRSNGIAASGKVGATTWAKLMQSA | -1.14
17 | HMATTAGIEKYLGSGLIKGIGPIYAKKIVRKFKEDTIRIIDEEPDRLLEVEGIGQKRLEIIKQAWQQQKE | -0.391
18 | HMGNLEENFRLKAGTEDGAWEFIRYHLGKLPVVNESNGTAIVNAERQAFLLFDRMVAFHIQRGVMVPLSAP | 0.0891
19 | HMQISLDTKLINLEFSVRANNVFRENQIFTLRDLTSHSKEDLMLMTNFGKTTLYEVNKKLEEHQLKLSQ | -2.69

Row | Sequence | soluble fraction (log2)
20 | HMSLETRRYQLPRTDAQTASGLLRSLSGLPGVREVNLSGEGVAYLKVDSKGFDEQNVIKLLAGE | 0.307
21 | HMTEQKNNEQQNAVNEKKQALKQLMEKGKEKGSLSYNEVNALLDKLEFTEDQKAIVYDQLHSEDIELQ | 0.193
22 | HMTETTTVPKLKGLTKDEAEDAAKSSKIKLEFIDEISKTVEAGVIIKQEKDEGETVNAGDTVKVYVSIGT | 0.218
23 | HMGQISLSVNAIPEKAEVILDGNSIGNTPIRKNTITPGSHMFEIEKKGYAPISYDIYVNPSKAINLDFFM | -0.63
24 | HMLQGKVSFFNDEKGYGFIKDNNSKDSYFVHINKVEGEIAEGDKVTFELEKGPKGLVAANVKR | 0.184
25 | HMGIERTNADTSFSVNVYGKELIITSNKPLVVNIYAIDGTLVRTEQVTIGVNTVSGLPSGIYVVGQQKVVI | 0.297
26 | HMGMMTLGQRIAQYRKAMGISQEELGGRLGVSRQAVSKWETDAAAPDMENLLALAREFGVSVAELTETP | -0.0446
27 | HMSILPGVYRHYKGNHYQVFYLAKHSETLEDMVVYQALYGERGIWVRPASMWNETVDDQGKQVKRFTYI | -0.24
28 | HMAESSPYTVRPGDTLWKILAQTQNARYNDFPYLYRKFRELNPNITDLNHIVSGQKIIVPHIPG | 0.0168
29 | HMSKMTLGENLRLLRREKGLSQEQVAQTLFVARQTISKWENGQAEPGVESLKALAKLYGVSLDRLVGA | -0.0483
30 | HMGSFDDAPDQLRQSILQLLAEGPLPPSAITERLNISREDATEALQQLLDEQRIFAVNGMLQLQPG | -0.0107
31 | HMSESLRDLVLSLIPEDGSTIGNRALITRLREDLPDLTDEDYHEVRDQLIAEGVLAKGRGQGGSVARANG | 0.205
32 | HMKSDVVFDITDGTVKAMLKFNRSDVTILNNDGKNYYLFTANGEFTFKYQDGSGEYYEKTVYVDWLEDE | -1.24
33 | HMNIKITKSKNSEHYSIIYNTKINGKRTSKIYENIGNFEKLKLRAGEQEPIEWLKNYVSELNKKQKEDT | 0.109
34 | HMAARLMRALIPYAQGGLLAKLHEDGQVLSEEYTGEGIEVKALADEQLFGRLTVQLGEQAVSWQD | 0.16
35 | HMDFSERLARAMSLAGYTQGRLAKEVGMAQSSVNKLLNGANGSRKTVEIASVLGVRPEWLSTGAGEML | -0.371
36 | HMGGKTAVVTGSLVNVRKGPGTGNALVGQVARGDELPVLGQDGDWYQIKLANGSNGWVAGWLVSLKDAVP | 0.432
37 | HMKMLEINDNDSVGLKNLKTQYNHNQKVIENFQLEINKVINDGELPDKYLLDGMEKYQKLNMQIMSTIEKQ | 0.00483
